The record followed here is publication PMC9122090 (Structure (London, England : 1993), 2021).

Test [1] addresses T1, FHOD1-N (human FHOD1 residues 1–339), wild type (human, UniProt Q9Y613 1-339).
T1 sequence (looked up): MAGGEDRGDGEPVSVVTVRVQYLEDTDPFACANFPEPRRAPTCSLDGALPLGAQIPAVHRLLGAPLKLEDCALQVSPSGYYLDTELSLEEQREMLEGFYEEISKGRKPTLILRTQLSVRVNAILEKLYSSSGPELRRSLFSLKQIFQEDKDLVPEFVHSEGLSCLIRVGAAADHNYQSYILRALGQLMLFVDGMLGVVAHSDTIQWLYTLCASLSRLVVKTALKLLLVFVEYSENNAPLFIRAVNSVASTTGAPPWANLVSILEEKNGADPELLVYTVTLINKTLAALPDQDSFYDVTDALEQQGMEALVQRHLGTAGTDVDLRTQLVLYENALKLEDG
Briefly: BLI.

Test [2] has as its target T1, FHOD1-N (human FHOD1 residues 1–339), …. The test can be described thus: SEC. On the technique in general: Size exclusion chromatography separates by hydrodynamic size, large species first.
Test [3] deals with T2, Nes2G SR11–12-FHOD1-N complex (human, UniProt Q9Y613 1-339; Q8WXH0 1425-1649).
T2 sequence (looked up) 1: T1 sequence (looked up)
T2 sequence (looked up) 2: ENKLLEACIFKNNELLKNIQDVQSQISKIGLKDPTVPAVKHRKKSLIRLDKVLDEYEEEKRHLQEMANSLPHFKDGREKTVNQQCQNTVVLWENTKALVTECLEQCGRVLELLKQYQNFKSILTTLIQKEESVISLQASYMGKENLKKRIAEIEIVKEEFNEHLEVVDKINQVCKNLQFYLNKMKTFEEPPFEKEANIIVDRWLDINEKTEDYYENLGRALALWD
The test can be described thus: SEC.

Test [4] deals with T1, FHOD1-N (human FHOD1 residues 1–339), …. The test can be described thus: SEC. This is another data set of the same source.

Usually Kd stands for a measure of binding affinity in units of concentration. The low end stands for higher affinity, the high end for lower affinity.

B1: N-terminally AVI-tagged, biotinylated Nes1G SR17–18 (residues 1976–2200) (domain or fragment, human, UniProt Q8NF91 1976-2200, looked up)
chain: LAVLKKAFQDQKEELLKSIEDIEERTDKERLKEPTRQALQQRLRVFNQLEDELNSHEHELCWLKDKAKQIAQKDVAFAPEVDREINRLEVTWDDTKRLIHENQGQCCGLIDLMREYQNLKSAVSKVLENASSVIVTRTTIKDQEDLKWAFSKHETAKNKMNYKQKDLDNFTSKGKHLLSELKKIHSSDFSLVKTDMESTVDKWLDVSEKLEENMDRLRVSLSIWD
modifications: biotin on the AVI sequence
In turn, B1 had a Kd in test [1] of 85 nM.

B2: N-terminally AVI-tagged, biotinylated Nes1G SR18 (residues 2076–2200) (domain or fragment, human, UniProt Q8NF91 2076-2200, looked up)
chain: ENQGQCCGLIDLMREYQNLKSAVSKVLENASSVIVTRTTIKDQEDLKWAFSKHETAKNKMNYKQKDLDNFTSKGKHLLSELKKIHSSDFSLVKTDMESTVDKWLDVSEKLEENMDRLRVSLSIWD
modifications: biotin on the AVI sequence
In the case of B2, in test [1], the binding result is “binds”.

B3: Nes1G SR17–18 (human nesprin-1 giant residues 1976–2200) (domain or fragment, UniProt Q8NF91-1 1976-2200, looked up)
chain: B1 chain
B3: in test [2], the binding result is “binds”.

B4: N-terminally AVI-tagged, biotinylated Nes2G SR11–12 (residues 1425–1649) (domain or fragment, human, UniProt Q8WXH0 1425-1649, looked up)
chain: T2 sequence (looked up) 2
modifications: biotin on the AVI sequence
In test [1], B4 showed a Kd of 375 nM.

B5: Nes1G SR18 (human nesprin-1 giant residues 2076–2200) (domain or fragment, UniProt Q8NF91-1 2076-2200, looked up)
chain: B2 chain
Consider B5, for which the binding result in test [2] was “binds”.

B6: Nes2G SR11–12 (human nesprin-2 giant residues 1425–1649) (domain or fragment, UniProt Q8WXH0-1 1425-1649, looked up)
chain: T2 sequence (looked up) 2
As to B6, the binding result in test [2] was “binds”.

B7: FHOD1 DAD domain (residues 1052–1164), released from MBP-DAD by 3C protease (domain or fragment, human, UniProt Q9Y613 1052-1164, looked up)
chain: SMKSLLTSRPEDTTHNRRSRGMVQSSSPIMPTVGPSTASPEEPPGSSLPSDTSDEIMDLLVQSVTKSSPRALAARERKRSRGNRKSLRRTLKSGLGDDLVQALGLSKGPGLEV
B7: the binding result in test [3] and in test [4] was “binds” throughout.
